The record followed here is patent US20230192845A1 (BLINK BIOMEDICAL, published 2023).

Numbering of substitutions follows the chain as printed. In names and notes the source's numbering stands. Bounds are passed on as bounds.

First the molecules themselves.
T1: human CD96 short isoform v2 expressed on CHO cells (human, UniProt P40200 22-585)
T1 construct: also called hCD96v2; CD96v2; not shown: C-terminal HA-tag
T1 sequence: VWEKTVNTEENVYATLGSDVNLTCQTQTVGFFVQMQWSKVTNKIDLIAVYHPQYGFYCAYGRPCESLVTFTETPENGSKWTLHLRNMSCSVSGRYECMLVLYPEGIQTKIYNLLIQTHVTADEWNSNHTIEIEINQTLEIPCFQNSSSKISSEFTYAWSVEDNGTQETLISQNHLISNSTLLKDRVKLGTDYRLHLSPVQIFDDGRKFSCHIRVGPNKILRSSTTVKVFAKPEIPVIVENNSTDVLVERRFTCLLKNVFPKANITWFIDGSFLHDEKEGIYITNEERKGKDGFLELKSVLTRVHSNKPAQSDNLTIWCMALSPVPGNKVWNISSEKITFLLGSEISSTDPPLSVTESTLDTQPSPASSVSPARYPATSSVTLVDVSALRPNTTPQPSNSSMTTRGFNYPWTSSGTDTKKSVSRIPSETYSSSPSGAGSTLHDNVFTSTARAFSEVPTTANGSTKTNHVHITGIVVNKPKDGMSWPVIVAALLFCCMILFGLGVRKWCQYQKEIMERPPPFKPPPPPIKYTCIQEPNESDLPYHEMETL

T2: mouse CD96 expressed on CHO cells (mouse, UniProt Q3U0X8 22-602)
T2 construct: whole, on cells; also called mCD96
T2 sequence (looked up): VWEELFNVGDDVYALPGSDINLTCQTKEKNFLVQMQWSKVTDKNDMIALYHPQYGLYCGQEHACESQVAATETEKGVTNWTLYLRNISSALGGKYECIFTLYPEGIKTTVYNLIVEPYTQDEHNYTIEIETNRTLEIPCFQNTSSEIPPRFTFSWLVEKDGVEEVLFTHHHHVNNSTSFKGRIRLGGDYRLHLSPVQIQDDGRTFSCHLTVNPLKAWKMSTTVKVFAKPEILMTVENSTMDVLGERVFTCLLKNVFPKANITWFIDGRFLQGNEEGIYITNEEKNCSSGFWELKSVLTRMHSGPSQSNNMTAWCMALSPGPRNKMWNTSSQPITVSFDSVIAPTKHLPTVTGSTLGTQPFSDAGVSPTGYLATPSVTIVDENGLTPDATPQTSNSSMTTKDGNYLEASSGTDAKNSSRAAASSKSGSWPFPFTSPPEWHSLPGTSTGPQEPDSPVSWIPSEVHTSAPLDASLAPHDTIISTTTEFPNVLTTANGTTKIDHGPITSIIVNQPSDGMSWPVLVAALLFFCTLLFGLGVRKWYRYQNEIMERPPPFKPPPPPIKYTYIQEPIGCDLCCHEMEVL

T3: rhesus CD96 transiently expressed on CHO cells (rhesus, UniProt P40200 22-585 (human entry))
T3 construct: also called rhesus CD96, short isoform
T3 chain: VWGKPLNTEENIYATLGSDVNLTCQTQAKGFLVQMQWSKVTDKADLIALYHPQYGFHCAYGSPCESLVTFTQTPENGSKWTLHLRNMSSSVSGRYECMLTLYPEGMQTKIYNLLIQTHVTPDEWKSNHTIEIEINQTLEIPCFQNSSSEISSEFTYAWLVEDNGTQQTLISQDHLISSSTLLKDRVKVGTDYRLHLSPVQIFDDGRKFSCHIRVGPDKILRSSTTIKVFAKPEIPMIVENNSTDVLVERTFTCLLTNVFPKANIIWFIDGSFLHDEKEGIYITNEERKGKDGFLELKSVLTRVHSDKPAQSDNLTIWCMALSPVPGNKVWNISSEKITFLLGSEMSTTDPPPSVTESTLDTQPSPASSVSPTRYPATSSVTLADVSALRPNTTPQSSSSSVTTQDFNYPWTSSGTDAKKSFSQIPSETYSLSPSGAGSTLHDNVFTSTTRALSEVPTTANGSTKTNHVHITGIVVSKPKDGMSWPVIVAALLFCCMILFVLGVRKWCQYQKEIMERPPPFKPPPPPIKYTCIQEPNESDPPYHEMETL

B1: BL006-9-15G1-15K5 (antibody, V domains shown)
VH: QAYLQQSGAELVRPGASVKMSCKASGYTFTSYNMHWVKQTPRQGLEWIGAVIPGNGDSFYNQKFKGKATLTVDKSSSTAYMQLSSLTSEDSAVYFCGRSSSGCIAYWGQGTLVTVSA
VL: DIVLTQSPASLAVSLGQRATISCRVSGSVDYDGDSYMNWYQQKPGQPPKLLIYAASNLESGIPARFSGSGSETDFTLNIHPVEEEDAATYYCLQSNEAPWTFGGGTKVEIK
notes: Recombinant mIgG2a/kappa (also made as mIgG2a-D265A); also called candidate NO 12
B2: BL006-4-31G1-31K3 (antibody, V domains shown)
VH: QVQLQQSGPELVKPGASVKISCKTSGFTFTDYYINWVKQRPGQGLEWIGWIFPGSGSSFYSEIFKGQATLTVDKSSSTAYMLLSSLTSEDSAVYFCARRNYYGYGAYAMDYWGQGTSVTVSS
VL: DIQMNQSPSSLSASLGDTITITCRASQSINFWLSWYQQKPGNIPKLLIYKASNLHTGVPSRFSGSGSGTDFTLTISSLQPEDIATYYCLQGQSYPLTFGGGTKLEIK
notes: Recombinant mIgG2a/kappa (also made as mIgG2a-D265A); also called candidate NO 10
B3: BL006-4-52G6-52K7 (antibody, V domains shown)
VH: QVQLQQPGAELVKPGASVKLSCKASGYSFTSYWMHWVKQRPGQGLEWIGQIDPSDSYTNYNQKFKGKATLTVDKSSSTAYMQLSSLTSEDSAVYYCASGNYGPYLGNYFDYWGQGTTLTVPS
VL: DIVMSQSPSSLVVSVGEKVTMSCKSSQSLLHSTNQKNYLAWYQQKPGQSPKLLIYWASTRESGVPDRFTGSGSGTDFTLTISSVKAEDLVVYYCQQYYNYPYTFGGGTKLEIK
notes: Recombinant mIgG2a/kappa (also made as mIgG2a-D265A); also called BL006-4-52G6-52K7 #4; candidate NO 2
B4: BL006-19-352G9-352K8 (antibody, V domains shown)
VH: QVQLQQPGAELVKPGASVKLSCKASGYTFTSYWMHWVKQRPGQGLEWIGMIHPNGDITDYNEKFKSKATLAVDESSSTAFMQLNSLTSEDSAFYYCARASYYGSLYWGQGTTLTVSS
VL: DIVMTQSQKFMSTSVGDRVSVTCKASQNVGIAVAWYQKKPGQSPKTLIYSASTRYTGVPDRFTGSGSGTDFTLTINDVQSEDLADYFCQQYGSSPLTFGAGTKLELK
notes: Recombinant mIgG2a/kappa (also made as mIgG2a-D265A); also called candidate NO 17
B5: BL006-19-370G9-370K16 (antibody, V domains shown)
VH: QVQLQQSGAELGRPGTSVKMSCKAAGYTFTNYWIGWVKQRPGHGLEWIGDIYPGGGYTNYNEKFKGKATLTADTSSSTAYIQLSSLTSEDSAIYYCARSGYYDGSPLAMDYWGQGTSVTVS
VL: QIVLTQSPTIMSASPGEKVTMTCSASSSVSYMHWYQQKSGTSPKRWIYDTSKLASGVPARFSGSGSGTSYSLTISSMEAEDAATYYCQQWSSNPPTFGSGTKLEIK
notes: Recombinant mIgG2a/kappa (also made as mIgG2a-D265A); also called candidate NO 19
B6: BL006-4-20G5-20K5 (antibody, V domains shown)
VH: EVQLAESGGDLVTPGGSLKLSCAASGFTFSSYGMSWVRQTPDKRLEWVATITHGGSYIYYPDSVKGRFTLSRDNAKNTLYLQMSSLKSEDTAMYYCIRHADYARFAYWGQGTLVTVSA
VL: DIQMTQTTSSLSASLGDRVTISCRPSQDISNYLNWYQQKPDGTVKLLIYYTSRLHSGVPSRFSGSGSGTDYSLTISNLEQEDIATYFCQQGNTLPWTFGGGTKLEIK
notes: Recombinant mIgG2a/kappa (also made as mIgG2a-D265A); also called BL006-4-20G5-20K5 #1; candidate NO 1
B7: BL006-19-134G5-134K4 (antibody, V domains shown)
VH: QVQLQQPGAELVKPGASVKLSCKASDYTFTTYWMHWVKQRPGQGLEWIGMIHPNSDTTLYNEKFRSQATLTVDKSSSTAYIQLSRLTSEDSAVYYCVVTGTNFDYWGQGTTLAVSS
VL: QVVLTQSPAIMSASPGEKVTMTCSATSSVSYMYWYQQKPGSSPKPWIYRTSNLASGVPVRFSGSGSGTSYSLTISSMEAEDAATYYCQQWSSNPLTFGGGTKLELK
notes: Recombinant mIgG2a/kappa (also made as mIgG2a-D265A); also called BL006-19-134G5-134K4 #2; candidate NO 7
B8: BL006-19-363G1-363K1 (antibody, V domains shown)
VH: B7 VH with D26G, M34I, H52L, D56G, L59I, T78A, I81M, V97A, A113T
VL: B7 VL with V2I, T26S, S66F, S76N, G99T
notes: Recombinant mIgG2a/kappa (also made as mIgG2a-D265A); also called candidate NO 18

One experiment concerns the target T1, human CD96 short isoform v2 expressed …. Put plainly: FCM on hCD96v2-CHO cells. On the procedure: FIG. 6: Binding profiles of anti-hCD96 antibodies on human CD96-transfected CHO cells (hCD96v2, short isoform). CHO cells expressing hCD96v2 were incubated with serial dilution of the indicated mIgG1 or mIgG2a anti-CD96 or isotype control antibodies. […] The results are expressed as the difference of mean fluorescence intensity (delta MFI) between cells stained with antibodies and cells without antibodies. Dose response curves were obtained from GraphPad prism software using a non-linear regression fit with a variable slope model (4 parameters). To simplify the reading, results from the various anti-hCD96 candidates are shown on 4 different panels.
The capacity of the identified mouse anti-CD96 antibodies to recognize the cell membrane expressed human CD96 was further analyzed by flow cytometry (FCM) by using CHO cells stably transfected with the CD96 short isoform v2 (CD96v2; Genbank accession number NM_005816, flanked in C-terminus with HA-tag) (SEQ ID NO: 268).
Mouse anti-CD96 antibodies and isotype control antibodies were incubated at various concentrations from 10 μg/mL to 4.6 ng/mL with CHO cells expressing human CD96 at +4° C. for 30 minutes. […] The differences between the mean fluorescence intensity (MFI) obtained for each of the antibody concentration and the intensity obtained in absence of primary antibody (delta-MFI), were calculated and plotted against the concentrations of antibodies.
Usually EC50 stands for the concentration that produces a half-maximal response. Read a low EC50 as an effect from little substance. Consider B1, for which a half-maximal effect (EC50) was put at 14.3 nM and the “Maximum binding (delta MFI)” value is 42000 delta MFI.
In the case of B2, the EC50 came to 4.82 nM and the “Maximum binding (delta MFI)” value was 723000 delta MFI.
The corresponding values for B3 are 13.4 nM and 493000 delta MFI.

Another experiment concerns the target T2, mouse CD96 expressed on CHO cells. Description: FCM on CHO cells expressing mouse CD96. An excerpt: (§1) The capacity of the identified mouse anti-human CD96 antibodies to recognize the CD96 protein from other species was further analyzed by flow cytometry by using CHO cells expressing the mouse or the rhesus CD96. The expression of the species-specific CD96 on CHO cell surface was confirmed by using staining with appropriate anti-CD96 antibodies and flow cytometry on non-fixed cells. The rat anti-mCD96 antibody clone #630612 (R&D Systems) and the candidate BL006-9-1 (positive by ELISA on rhesus CD96) were used to confirm the expression of rhesus CD96, while the clone 6A6 (rat IgG2a, e-Bioscience) was used to verify the expression of mouse CD96.
(§2) Mouse anti-CD96 antibodies and isotype control antibodies were incubated at 10 or 1 μg/mL with CHO cells expressing different CD96 species at +4° C. for 30 minutes.
On to B4, for which the binding result is “no binding (tested: 1 and 10 µg/mL)”.
On the same count and under the same terms, in the case of B2 it was “no binding (tested: 1 and 10 µg/mL)”; in that of B5, “no binding (tested: 1 and 10 µg/mL)”.
Still for that read-out and setting: in the case of B3 it was “no binding (tested: 1 and 10 µg/mL)”.
As for B6, the binding result was “no binding (tested: 1 and 10 µg/mL)”.
On the same count and under the same terms, in the case of B7 it was “no binding (tested: 1 and 10 µg/mL)”; in that of B8, “no binding (tested: 1 and 10 µg/mL)”.

Another experiment concerns the target T1, human CD96 short isoform v2 expressed …. Description: FCM, inhibition of hCD155-Fc binding to hCD96v2-CHO cells. The procedure: All candidates except BL006-2-19 that bound very weakly on hCD96v2 by FCM were tested for their capacity to inhibit the binding of human CD155 to hCD96v2 stably expressed on CHO cells. Human CD96-transfected CHO cells (3×10⁵ cells/well of 96-well plate) were incubated at +4° C. for 30 minutes with serial dilutions of anti-CD96 antibodies or isotype control antibody (in mIgG2a or mIgG2aD265A format) in the presence of 4 μg/mL of biotinylated hCD155-Fc (produced and biotinylated at BliNK).
% inhibition=(1−(MFI_wAb&CD155−MFI_CHO)/(MFI_wCD155−MFI_CHO))×100, where MFI_wAb&CD155 is the Mean Intensity Fluorescence (MFI) obtained with the hCD96-CHO cells incubated with the tested antibody and hCD155-hFc; MFI_CHO is the MFI obtained in the absence of hCD155 and mAbs; and MFI_wCD155 is the fluorescence with hCD155 but without pre-incubation with antibody (0% CD155 binding inhibition). The % of inhibition was plotted against antibody concentration and the IC50 values were calculated by using a nonlinear regression analysis model of the GraphPad Prism software.
As to B1, the “Maximal Inhibition Capacity (%)” value is less than 5%.
Usually IC50 stands for the midpoint of a concentration-inhibition curve. The low end stands for higher potency, the high end for lower potency. With B2, the IC50 stood at 16.8 nM and the “Maximal Inhibition Capacity (%)” value is 100%.
With B3, the “Maximal Inhibition Capacity (%)” value was less than 5%.

A further experiment addresses T3, rhesus CD96 transiently expressed on …. Description: flow cytometry on CHO cells transiently expressing rhesus CD96; antibody at 1 (thin line) and 10 µg/ml (thick dashed line), filled grey = isotype control. On the procedure: FIG. 7: Binding profiles of anti-CD96 antibodies on CHO cells transfected with rhesus CD96. Anti-CD96 antibodies or the corresponding isotype control mAbs were tested for their capacity to recognize rhesus CD96 transiently expressed on CHO cells by flow cytometry. Each histogram represents the overlay of the fluorescence intensity obtained for each antibody tested at 1 (black line) and 10 μg/ml (thick dashed black line) and compared to the fluorescence obtained with an isotypic control (filled grey histogram).
as §1, §2
(In flow cytometry, cells or beads pass a laser one at a time.)
On to B4, for which the binding result is “binds”.
Same read-out and setting: in the case of B2 it was “binds”; in that of B5, “no binding (tested: 10 µg/ml)”; in that of B3, “binds”.
On the same count and under the same terms, then B6, with “no binding (tested: 10 µg/ml)”.
The same measure, in the same setting: then B7, with “no binding (tested: 10 µg/ml)”; and B8, with “no binding (tested: 10 µg/ml)”.
